Two molecules from patent US9809653B2, “Anti-LAMP1 antibodies and antibody drug conjugates, and uses thereof” (SANOFI, priority 2012, dated 2017) can be followed below.

Numbering of substitutions follows the chain as printed.

In assay [1] the target is T1, Hybrid LAMP1 / glycan-deleted LAMP1 transmembrane proteins (Homo sapiens, UniProt P11279, D66S/F65I/K57A/K61Q/M63V/N62I/P60S/S58N/T64N).
T1 construct: expressed in transfected cells; host or cells: 293-F (HEK293-derived), transient transfection
T1 sequence (P11279 with tags, fused parts or gaps K57A/S58N/P60S/K61Q/N62I/M63V/T64N/F65I/D66S): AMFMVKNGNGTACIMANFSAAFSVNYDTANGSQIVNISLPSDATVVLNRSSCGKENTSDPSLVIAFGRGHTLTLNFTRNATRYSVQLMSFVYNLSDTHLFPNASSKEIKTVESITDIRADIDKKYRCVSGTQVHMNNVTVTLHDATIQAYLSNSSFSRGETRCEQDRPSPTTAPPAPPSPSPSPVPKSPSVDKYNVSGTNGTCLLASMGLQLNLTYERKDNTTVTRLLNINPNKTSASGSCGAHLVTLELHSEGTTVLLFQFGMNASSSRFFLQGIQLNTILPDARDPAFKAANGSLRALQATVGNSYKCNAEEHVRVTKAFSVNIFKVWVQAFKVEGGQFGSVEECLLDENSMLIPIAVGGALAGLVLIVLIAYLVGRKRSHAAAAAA
Kind of assay: Binding onto membrane-anchored hybrid or mutated LAMP1 proteins (293-F cells) by flow cytometry. Set-up: species or system human/mouse. Conditions: pXL6014 LAMP1_mseq3_ΔGYQTI; Table 18. On the procedure: (§1) Different LAMP1 proteins were expressed at the cell membrane of HEK293 cells after transient expression from mammalian plasmids encoding the entire coding sequence of LAMP1 deleted of the intracellular lysosome-targeting motif GYQTI and substituted by a 5-Ala repeat sequence.
(§2) Two days post transfection cells were processed, analyzed by flow cytometry (Guava® easyCyte™ 8HT) as mentioned in example 4.7, and the mean fluorescence was recorded. This fluorescence represents a semi-quantitative assessment of binding.

Assay [2] deals with T2, Hybrid LAMP1 / glycan-deleted LAMP1 transmembrane proteins (Mus musculus, UniProt P11438, E181G/G176S/K100R/K180R/L93T/N177S/S175N/T102A/Y92H).
T2 construct: expressed in transfected cells; host or cells: 293-F (HEK293-derived), transient transfection
T2 sequence (P11438 with tags, fused parts or gaps Y92H/L93T/K100R/T102A/S175N/G176S/N177S/K180R/E181G): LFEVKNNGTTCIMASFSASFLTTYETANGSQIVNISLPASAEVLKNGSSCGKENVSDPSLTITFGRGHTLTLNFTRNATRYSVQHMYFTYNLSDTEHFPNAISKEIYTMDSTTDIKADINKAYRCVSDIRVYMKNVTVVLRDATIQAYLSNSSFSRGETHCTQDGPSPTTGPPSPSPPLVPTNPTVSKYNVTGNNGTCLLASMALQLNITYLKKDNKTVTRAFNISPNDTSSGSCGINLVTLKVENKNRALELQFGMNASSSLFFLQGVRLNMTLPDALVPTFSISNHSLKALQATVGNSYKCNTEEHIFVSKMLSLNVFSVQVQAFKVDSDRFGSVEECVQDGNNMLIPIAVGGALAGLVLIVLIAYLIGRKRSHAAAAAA
Described as above. Details: species or system human/mouse. Conditions: pXL6041 mLAMP1_hseq6-11_ΔGYQTI. How it is done:
as §1, §2

Assay [3] concerns the target T3, Hybrid LAMP1 / glycan-deleted LAMP1 transmembrane proteins (Mus musculus, UniProt P11438, K100R/L93T/T102A/Y92H).
T3 construct: expressed in transfected cells; host or cells: 293-F (HEK293-derived), transient transfection
T3 sequence (P11438 with tags, fused parts or gaps Y92H/L93T/K100R/T102A): T2 sequence (P11438 with tags, fused parts or gaps Y92H/L93T/K100R/T102A/S175N/G176S/N177S/K180R/E181G) with N151S, S152G, S153N, R156K, G157E
The assay is described as above. Set-up: species or system human/mouse. The following applies: pXL6047 mLAMP1_hseq6_ΔGYQTI. On the procedure:
as §1, §2

In assay [4] the target is T4, LAMP1 in FFPE colon adenocarcinoma PDX CR-LRB-010P and human breast carcinoma (Homo sapiens, UniProt P11279).
T4 construct: from tissue; host or cells: human tumoral and non-tumoral tissue sections and PDX tumour sections (frozen-OCT, AFA, FFPE)
T4 sequence (P11279 29-417): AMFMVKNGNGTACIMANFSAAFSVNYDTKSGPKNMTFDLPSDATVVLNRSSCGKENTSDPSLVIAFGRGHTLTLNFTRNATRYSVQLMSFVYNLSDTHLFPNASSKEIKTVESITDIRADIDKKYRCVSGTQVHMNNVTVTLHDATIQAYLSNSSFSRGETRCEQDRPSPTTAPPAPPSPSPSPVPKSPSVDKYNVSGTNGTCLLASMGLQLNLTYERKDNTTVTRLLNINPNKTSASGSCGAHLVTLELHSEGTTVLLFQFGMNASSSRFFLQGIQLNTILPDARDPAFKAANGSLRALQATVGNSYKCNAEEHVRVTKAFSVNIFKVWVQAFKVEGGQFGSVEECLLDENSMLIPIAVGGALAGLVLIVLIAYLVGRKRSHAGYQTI
Kind of assay: IHC on FFPE tumor tissue, LAMP1 membrane reinforcement. Conditions: FFPE samples. From the text: IHC analysis of tumor tissues from biobanks or from hospitals before or during patient treatment is routinely done with formalin-fixed paraffin-embedded (FFPE) samples. […] One of the reasons is probably the effect of the formalin fixative combined to the complexity of the protein. Samples processed in frozen OCT or AFA are not routinely prepared in hospitals. Therefore, there is a need to have a mAb that would allow complete and fast coverage of the FFPE tumor biobanks and hospital samples.
Rabbit polyclonal antibodies generated with peptides described in example 17.1.1 were tested by IHC on FFPE sample of colon adenocarcinoma patient derived xenograft CR-LRB-010P and human breast carcinoma. After antigen retrieval procedure and endogen biotins blocking steps, slides were incubated with the primary anti-antibody for 1 hour at 24° C. Negative controls were performed by omission of the primary antibody. The biotin free anti-rabbit UltraMap™ horseradish peroxidase (HRP) conjugate (760-4315, Ventana Medical Systems, Inc, USA) was used as secondary antibody system according to manufacturer's recommendations. A couterstaining step was done with hematoxylin (760-2037, Ventana Medical Systems, Inc, USA) and bluing reagent was applied (760-2037, Ventana Medical Systems, Inc, USA). Stained slides were dehydrated and coverslipped with cytoseal XYL (8312-4, Richard-Allan Scientific, USA).
As the same manner as in example 17.1.2, IHC screening was performed with the hybridoma supernatant to identify mouse monoclonal antibody showing LAMP1 membrane reinforcement on FFPE sample of colon adenocarcinoma patient derived xenograft CR-LRB-010P. The biotin free anti-mouse UltraMap™ horseradish peroxidase (HRP) conjugate (760-152, Ventana Medical Systems, Inc, USA) was used as secondary antibody system according to manufacturer's recommendations.

B1: MAb1: murine monoclonal anti-LAMP1 antibody, VH SEQ ID NO: 1, VL SEQ ID NO: 5 (antibody, V domains shown)
VH: QVQLQQSGAELVKPGASVKMSCKASGYIFTNYNIHWVKKSPGQGLEWIGAIYPGNGDAPYSQKFKDKATLTADKSSSTTYMQLSRLTSEDSAVYYCVRANWDVAFAYWGQGTLVSVSA
VL: DIQMTQSPPSLSASLGGKVTITCKASQDIDRYMAWYQDKPGKGPRLLIHDTSTLQPGIPSRFSGSGSGRDYSFSISNLEPEDIATYYCLQYDNLWTFGGGTKLEIK
modifications: Antibody Fragment; antibody fragment
In the case of B1, the Binding call in assay [1] is reported as “Binding”; in assay [2] (Table 17 Experiment no1) it was “Binding”; in assay [2] (Table 17 Experiment no2), “binding”; in assay [3] (Table 17 Experiment no1), “No binding”; in assay [3] (Table 17 Experiment no2) it was “No binding”. Also, the Mean fluorescence in assay [1] worked out at 888; in assay [2] (Table 17 Experiment no1), 680; in assay [2] (Table 17 Experiment no2) it was 211; in assay [3] (Table 17 Experiment no1), 7; in assay [3] (Table 17 Experiment no2), 3. The “LAMP1 membrane reinforcement in FFPE format by IHC” value in assay [4] is “can not lead to the detection of LAMP1 reinforcement in FFPE format”.

B2: MAb2: murine monoclonal anti-LAMP1 antibody, VH SEQ ID NO: 8, VL SEQ ID NO: 12 (antibody, V domains shown)
VH: QVQLQQSAAELARPGASVKMSCKASGYTFTSYTMHWVKQRPGQGLEWIGYFNPSSGYPEYNQKFKDKTTLTADKSSNTAFIQLNSLTSEDSAVYYCSRGYYYGSRGYALDFWGQGASVTVSS
VL: NIVLTQSPVSLAVSLGQRATISCRASESVDINGNTFMHWYQQKPGQSPKLVIYAASNIESGVPARFSGSGSSTDFTFTIDPVEADDVATYYCQQNIEDPWTFGGGTKVEIK
modifications: antibod fragment; antibody fragment
Take B2: the Binding call in assay [1] is reported as “Binding”; in assay [2] (Table 17 Experiment no1), “No binding”; in assay [3] (Table 17 Experiment no1), “No binding”. Further, the Mean fluorescence worked out at 694 in assay [1], 28 in assay [2] (Table 17 Experiment no1) and 25 in assay [3] (Table 17 Experiment no1). In addition, in assay [4], the “LAMP1 membrane reinforcement in FFPE format by IHC” value is “can not lead to the detection of LAMP1 reinforcement in FFPE format”.
